Assay results published in paper PMC11893383 (Frontiers in Immunology, 2025).

B1: AB5-16 (antibody, V domains shown)
VH: QALMVQSEAAVKKPGASVKVSCKATGDAFSNHYLHWLRQAPGQGLEWLGIINPGAGSTTYAQKFQGRLTVTTDTSTNTVYMELSSLRSDDTAVYYCARDGAFIPSSYYYGMDVWGQGTTVTVSS
VL: EIVLTQSPGTLALSPGERATLSCRASQSVSSSYLAWYQQKPGQAPRLLIYGASSRATGVPDRFSGSGSGTDFTLTVSSLEPEDFAVYYCQQREAFGQGTKVEVK
B2: AB6-17 (antibody, V domains shown)
VH: QLQLQESGPGLVESSETLSLTCTVSSGSISRSTYYWGWIRQPPGKGMEWIGSISSGGSTYYNPSLNSRVTISIDTSKNQFSLKLRSVTAADTAVYYCARALQWPSPRIDYWAQGTLVTVSS
VL: DIQMTQSPSSLSASVGDRVTITCRASQSISSYLNWYQHKPGKAPKLLIYAASSLESGVPSRFTGSGSGTDFTLTIDSLQPEDFATYYCQQSYSTPLFTFGPGTTVDIK
B3: AB5-5 (antibody, V domains shown)
VH: QISLKESGPTLVQPTQTLTLTCTFSGFSLSSSGVGVGWIRQPPGKALEWLALLYWNDDKRYSPSLRTRLTITKDSSKNQVVLTMTNMDPMDTATYYCAHPRQTTVTTVFGLYPRPAAFDVWGPGTMVTVSS
VL: QSFLTQPPSVSGAPGQRVTISCTGSSSNIGAGYGVDWYQQLPGTAPKLLIYDNNNRPSGVPDRFSGSTSGTSASLAITGLHAEDEADYYCQSYDRSLSGSVVFGGGTKLTVL
B4: AB5-20 (antibody, V domains shown)
VH: QVQLVESGGGVVQPGRSLRLSCTASGFTFRHYGLHWVRQAPGKGLEWVAVILYDGSDEDYRDSVKGRFTISRDNSKNTLYLQMNSLRPEDTAVYYCAKQSGPYCSGGNCYSGHFDYWGQGTPVSVSS
VL: DIQMTQSPSSLSASVGDRVTITCQASQDISKSLSWYEQKPGKAPRLLIFEASNLETGVPSRFSGSGSGTSFSFTISSLQPEDFATYYCQQYDNVPLTFGGGTKVERK
B5: AB5-12 (antibody, V domains shown)
VH: QVQLQESGPGLVRPSQALSLTCTVSGGSISSEGYYWGWIRQHPGKGLEWIGYIYYTGNAYYNPSLQSRIDISVDTSANQFSLRLNSVTAADTAVYYCASDSFKGGFDSWGQGALVTVSS
VL: EIVLTQSPTTLSLSPGERATLSCRASQTVSGSVAWYQQKPGQAPRLVIYDVSYRATGIPARFSGSGSGTDFTLTISSLEPEDFAVYYCQERRKAFGQGTTVEIK

How the values were obtained:
Assay in all cases: ELISA
Conditions in all cases: both partners purified
[1] = target: SARS-CoV-2 wild-type (WT) receptor-binding domain (RBD) (SARS-CoV-2, wild type (Wuhan-Hu-1 …, UniProt P0DTC2))
[2] = target: T1, angiotensin-converting enzyme-2 (ACE2), biotinylated (Homo sapiens, assumed, UniProt Q9BYF1, biotin)
T1 construct: also called host protein

[3] = target: SARS-CoV-2 wild-type (WT) N-terminal domain (NTD) of the spike protein (SARS-CoV-2, wild type (Wuhan-Hu-1 …, UniProt P0DTC2))

T1 sequence (Q9BYF1 18-805): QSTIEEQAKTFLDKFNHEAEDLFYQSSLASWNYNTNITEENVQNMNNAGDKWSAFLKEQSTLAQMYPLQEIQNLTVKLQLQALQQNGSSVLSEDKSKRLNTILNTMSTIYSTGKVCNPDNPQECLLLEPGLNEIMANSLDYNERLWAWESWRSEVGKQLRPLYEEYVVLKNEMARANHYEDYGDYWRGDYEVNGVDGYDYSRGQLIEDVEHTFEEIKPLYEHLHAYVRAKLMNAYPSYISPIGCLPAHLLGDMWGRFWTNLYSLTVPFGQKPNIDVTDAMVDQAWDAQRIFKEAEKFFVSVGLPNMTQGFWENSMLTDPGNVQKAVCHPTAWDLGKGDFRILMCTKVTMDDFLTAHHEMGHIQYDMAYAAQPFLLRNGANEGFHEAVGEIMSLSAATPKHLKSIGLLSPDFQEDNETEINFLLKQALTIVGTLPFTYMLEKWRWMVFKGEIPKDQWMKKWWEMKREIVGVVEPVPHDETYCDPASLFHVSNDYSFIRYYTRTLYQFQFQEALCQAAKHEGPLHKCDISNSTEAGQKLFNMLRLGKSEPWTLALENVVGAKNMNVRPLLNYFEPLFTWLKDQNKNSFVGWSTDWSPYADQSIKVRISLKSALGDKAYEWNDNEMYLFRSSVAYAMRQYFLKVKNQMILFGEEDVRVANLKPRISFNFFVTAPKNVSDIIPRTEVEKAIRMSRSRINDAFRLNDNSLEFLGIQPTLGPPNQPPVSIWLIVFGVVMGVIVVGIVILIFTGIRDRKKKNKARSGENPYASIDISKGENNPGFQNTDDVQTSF

| Binder | binding result [1] | binding result [2] | binding result [3] |
| --- | --- | --- | --- |
| B1 | binds | no binding |  |
| B2 | binds | no binding |  |
| B3 | no binding |  | no binding |
| B4 | binds | no binding |  |
| B5 | no binding |  | no binding |
